Source: patent publication US20230043813A1, “METHODS FOR TARGETED CELL DEPLETION” (The Regents of the University of California, priority 2019, published 2023)

How the values were obtained:
[1] = system: GFP reporter in HEK-RT1 cells; assay: rapid mammalian genome editing reporter assay (HEK-RT1, GFP disruption); assay type: cell-based, human; conditions: transient transfection, with active or deactivated proteases
Description: To establish a rapid and quantitative way to reliably assess genome editing efficiency from various CRISPR-Cas constructs in mammalian cells, a fluorescence-based reporter assay was built. […] To quantify this effect, HEK293T cells were stably transduced with a retroviral vector (LMP-Pten.1524) constitutively expressing GFP (Fellmann et al., 2013), and established monoclonal derivatives.
Specifically, inducible monoclonal HEK293T-based genome editing reporter cells, referred to as “HEK-RT1,” were established in a two-step procedure. In the first step, puromycin resistant monoclonal HEK-RT3-4 reporter cells were generated (Park et al., 2018). In brief, HEK293T human embryonic kidney cells were transduced at low-copy with the amphotropic pseudotyped RT3GEPIR-Ren.713 retroviral vector (Fellmann et al., 2013), comprising an all-in-one Tet-On system enabling doxycycline-controlled GFP expression. After puromycin (2.0 μg/ml) selection of transduced HEK239 Ts, 36 clones were isolated and individually assessed for i) growth characteristics, ii) homogeneous morphology, iii) sharp fluorescence peaks of doxycycline (1 μg/ml) inducible GFP expression, iv) relatively low fluorescence intensity to favor clones with single-copy reporter integration, and v) high transfectability.
Since HEK-RT3-4 are puromycin resistant, in the second step, monoclonal HEK-RT1 and analogous sister reporter cell lines were derived by transient transfection of HEK-RT3-4 cells with a pair of vectors encoding Cas9 and guide RNAs targeting puromycin (sgPuro5, sgPuro6), followed by identification of monoclonal derivatives that are puromycin sensitive. In total, eight clones were isolated and individually assessed for i) growth characteristics, ii) homogeneous morphology, iii) doxycycline (1 μg/ml) inducible and reversible GFP fluorescence, and v) puromycin and hygromycin B sensitivity. […] The HEK-RT1 cell line was chosen as rapid mammalian genome editing reporter system for all further assays.
A guide RNA targeting the GFP fluorescence reporter (sgGFP9) was compared to a non-targeting control (sgNT). […] GFP expression in HEK-RT1 reporter cells was induced for 24-48 hour using doxycycline (1 μg/ml; Sigma-Aldrich), at the indicated days post-editing.

[2] = system: GFP or RFP expression in E. coli MG1655; assay: E. coli CRISPRi GFP/RFP repression assay; assay type: cell-based; conditions: Cas9-CP199 with protease cleavage site as CP linker
Protocol: Assays were performed using methods like those described by Oakes et al. (2016).
Endpoint Assay: Cells were picked in biological triplicate into 96 well plates containing 500 μL EZ MOPS plus Carb and CM. Plates were grown in 37° C. shakers for twelve hours. Next, cells were diluted 1:1000 in 500 μL EZ MOPS plus Carb, CM, IPTG and aTc. Two hundred nM aTc was used to induce Cas9-CPs or ProCas9s and 50 μM IPTG levels was used to induce the proteases in a 2 mL deep well blocks and shaken at 750 rpm at 37° C. After an eight-twelve-hour induction and growth period, 20 μL of cells were added to 80 μL of water and put into a 96-well microplate reader (Tecan M1000) at 37° C. and read immediately. Each well was measured for optical density at 600 nm and GFP or RFP fluorescence. GFP expression was normalized by dividing it with OD600. In the case of the time course assays, 150 μL of the 1:1000 dilution was used and placed into a black walled clear bottom plate (3631-Corning) and directly into the Tecan M1000 for a 130× 600 s kinetic cycle of reading. For E. coli single cell analysis, cells from the endpoint time course were run on a Sony SH800 to capture 100,000 events per sample.

WNV protease = target: T1, WNV protease (Kunjin virus, UniProt P14335); assay: immunoblot of ProCas9Flavi activation in HEK293T; assay type: cell-based, human; conditions: HEK293T co-transfected with WNV protease
T1 construct: expressed in transfected cells; host or cells: HEK293T (293FT)
T1 sequence (P14335 1506-2124): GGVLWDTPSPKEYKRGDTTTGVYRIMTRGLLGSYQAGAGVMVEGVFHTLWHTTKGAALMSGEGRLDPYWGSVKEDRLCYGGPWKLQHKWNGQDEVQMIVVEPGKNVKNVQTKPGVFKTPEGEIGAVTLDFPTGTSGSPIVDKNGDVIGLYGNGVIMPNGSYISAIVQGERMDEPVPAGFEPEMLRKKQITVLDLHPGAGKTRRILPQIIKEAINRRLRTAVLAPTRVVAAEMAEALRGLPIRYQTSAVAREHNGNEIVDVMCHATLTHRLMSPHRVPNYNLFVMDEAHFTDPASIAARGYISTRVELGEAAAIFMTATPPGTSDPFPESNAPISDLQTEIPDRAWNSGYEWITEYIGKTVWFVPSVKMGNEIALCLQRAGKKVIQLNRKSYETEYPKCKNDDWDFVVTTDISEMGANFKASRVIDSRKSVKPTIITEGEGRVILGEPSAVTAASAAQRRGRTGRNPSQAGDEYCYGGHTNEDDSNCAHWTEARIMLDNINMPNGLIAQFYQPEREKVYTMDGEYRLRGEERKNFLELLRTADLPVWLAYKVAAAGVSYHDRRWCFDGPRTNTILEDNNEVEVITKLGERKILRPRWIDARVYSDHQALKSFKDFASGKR
T1 sequence (P14335 1375-1505): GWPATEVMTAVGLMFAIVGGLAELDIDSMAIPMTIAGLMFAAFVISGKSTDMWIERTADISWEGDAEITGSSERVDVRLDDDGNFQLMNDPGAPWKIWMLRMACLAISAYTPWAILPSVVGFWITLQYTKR
Protocol: HEK293T (293FT; Thermo Fisher Scientific) were co-transfected with the indicated plasmids expressing Cas9-wt or ProCas9-Flavi and plasmids expressing dTEV or WNV protease. HEK293T cells were split to reach a confluency of 70%-90% at time of transfection. For transfections in 6-well plates, 1 μg Cas9-sgRNA vector and 0.75 μg protease vector (if applicable) were mixed in 0.4 mL Opti-MEM, followed by addition of 5.25 μg polyethylenimine (PEI; Polysciences #23966). After 20-30 min incubation at room temperature, the transfection reactions were dispersed over the HEK293T cells. Media was changed 12-hour post-transfection. At 36-hour post-transfection, HEK293T were washed in ice-cold PBS and scraped from the plates. Cell pellets were lysed in Laemmli buffer (62.5 mMTris-HCl pH 6.8, 10% glycerol, 2% SDS, 5% 2-mercaptoethanol). Equal amounts of protein were separated on 4%-20% Mini-PROTEAN TGX gels (Bio-Rad, #456-1095) and transferred to 0.2 μm PVDF membranes (Bio-Rad, #162-0177). Blots were blocked in 5% milk in TBST 0.1% (TBS+[…]) for 1 hour; all antibodies were incubated in 5% milk in TBST 0.1% at 4° C. overnight; blots were washed in TBST 0.1%. The abundance of b-actin (ACTB) was monitored to ensure equal loading. […]

B1: ProCas9Flavi: ProCas9 with WNV linker sequence KQKKR/GGK, Flavivirus protease-sensitive caged Cas9 (SEQ ID NO:50) (protein)
chain: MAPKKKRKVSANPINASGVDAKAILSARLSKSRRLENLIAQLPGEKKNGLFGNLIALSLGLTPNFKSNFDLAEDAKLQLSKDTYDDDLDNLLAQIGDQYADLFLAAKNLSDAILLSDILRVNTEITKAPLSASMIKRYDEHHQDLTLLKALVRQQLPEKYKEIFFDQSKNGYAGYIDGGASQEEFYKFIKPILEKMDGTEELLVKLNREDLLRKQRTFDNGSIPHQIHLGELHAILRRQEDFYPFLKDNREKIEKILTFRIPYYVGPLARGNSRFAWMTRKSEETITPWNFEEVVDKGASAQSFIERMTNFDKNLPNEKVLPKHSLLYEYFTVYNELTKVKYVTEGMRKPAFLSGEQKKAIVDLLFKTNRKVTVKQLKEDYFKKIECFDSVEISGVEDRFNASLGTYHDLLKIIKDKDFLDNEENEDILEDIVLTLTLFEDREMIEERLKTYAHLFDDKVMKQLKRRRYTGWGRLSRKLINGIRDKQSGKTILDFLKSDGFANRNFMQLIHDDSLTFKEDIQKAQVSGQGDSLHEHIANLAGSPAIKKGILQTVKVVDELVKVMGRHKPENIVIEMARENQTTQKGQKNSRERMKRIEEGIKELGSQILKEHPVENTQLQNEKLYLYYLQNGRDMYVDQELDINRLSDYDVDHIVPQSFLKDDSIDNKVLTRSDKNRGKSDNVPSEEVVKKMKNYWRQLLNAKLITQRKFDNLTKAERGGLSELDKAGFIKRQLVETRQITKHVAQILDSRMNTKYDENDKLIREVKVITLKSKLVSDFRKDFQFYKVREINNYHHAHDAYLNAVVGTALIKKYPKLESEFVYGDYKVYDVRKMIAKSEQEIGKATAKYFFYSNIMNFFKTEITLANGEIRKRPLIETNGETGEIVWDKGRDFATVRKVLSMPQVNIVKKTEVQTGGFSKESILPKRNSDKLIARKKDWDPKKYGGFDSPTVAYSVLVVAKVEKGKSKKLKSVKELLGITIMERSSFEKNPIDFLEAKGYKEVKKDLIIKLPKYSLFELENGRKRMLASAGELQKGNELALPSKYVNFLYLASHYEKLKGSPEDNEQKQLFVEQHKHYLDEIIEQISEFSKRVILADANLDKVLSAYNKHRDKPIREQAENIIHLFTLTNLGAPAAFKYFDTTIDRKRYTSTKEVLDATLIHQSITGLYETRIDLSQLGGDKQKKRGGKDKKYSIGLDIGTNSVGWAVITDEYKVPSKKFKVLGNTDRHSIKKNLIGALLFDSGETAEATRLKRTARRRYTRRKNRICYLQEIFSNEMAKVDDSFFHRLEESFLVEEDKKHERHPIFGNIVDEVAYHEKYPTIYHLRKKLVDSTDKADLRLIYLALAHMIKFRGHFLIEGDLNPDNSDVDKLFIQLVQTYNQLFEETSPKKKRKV
In the case of B1, the GFP disruption [1] is reported as “GFP disruption only in the presence of the active proteases”, the “ProCas9 activation by co-expressed viral proteases” value [2] is reported as “activated by NS2B-NS3 proteases from both Zika and WNV” and the “activation (cleavage into two subunits) by immunoblot” value (WNV protease) is reported as “vast majority of vigilant ProCas9Flavi was activated and observed as two distinct subunits”.
